Data set [1] addresses T1, Streptavidin (UniProt P22629 P22629:25-183). Briefly: EMSA; reduced S1 retains full activity. The following applies: tags: ImmunoPure streptavidin, Pierce; HRP or Texas Red conjugates in immunoassays; chain copies: 4. How it is done: All binding assays were performed in 20 μl volume. The binding buffer contains 50 mM Tris-Cl (pH 7.4), 100 mM NaCl, 15 mM MgCl₂, 10% glycerol, and 1 mM DTT. A typical binding assay using labeled RNA contains about 20 fmole of ³²P-labeled RNA probe and different amounts (1-10 pmole, indicated by L and H in FIG. 5B) of protein or non-labled RNA. The reactions were allowed to equilibrate for 15-20 minutes at ambient temperature before being subjected to EMSA.
For BBS-B52 interaction, EMS assay was performed at 4° C. The binding reaction mixtures were set at 4° C. for 5-10 minutes before being loaded onto a 2.5% agarose gel in ¼ TBE buffer. For the streptavidin aptamers and the TAR aptamers, EMSA were performed at ambient temperature with 6% or 12% native polyacrylamide gel run in TG buffer (25 mM Tris base, 200 mM glycine, and 5 mM MgCl₂).

Data set [2] has as its target T2, B52 RRMs (two RNA recognition motifs) (UniProt P26686 P26686:4-188). Briefly: Western blot and dot blot; as low as 1 ng protein detected. The following applies: tags: His; two fused three-way junctions, two BBS and two S1 aptamers. How it is done:
(§1) Western blot analysis for antibodies was performed according to a standard protocol (Harlow et al., Using Antibodies: A Laboratory Manual. Cold Spring Harbor, Cold Spring Harbor Laboratory Press (1999), which is hereby incorporated by reference in its entirety). For the aptabodies, proteins were separated on 8% SDS-PAGE and transferred to nitrocellulose membrane according to the aforementioned standard protocol. Subsequent steps were also identical except the following substitutions. The RNA aptabody B-S (FIG. 5A) (10 μg/ml) and horseradish peroxidase conjugated streptavidin (1 μg/ml) were used to replace the primary and secondary antibodies. […]
(§2) First, a Western blot analysis was conducted with the aptabodies and a monoclonal antibody against B52. The sample to be analyzed contained a full-length B52 produced from a baculovirus expression system, a His-tagged B52 deletion construct that contained the two RNA recognition motifs recognized by the aptamers and the monoclonal antibody By32 (Champlin et al., “Characterization of a Drosophila Protein Associated with Boundaries of Transcriptionally Active Chromatin,” Genes and Development 5:1611-1621 (1991), which is hereby incorporated by reference in its entirety), and a His-tagged Drosophila heat shock factor as control. […]

Data set [3] addresses T1, Streptavidin. Briefly: streptavidin conjugates as secondary reagent in Western, dot blot and immunofluorescence. Particulars: tags: ImmunoPure streptavidin, Pierce; HRP or Texas Red conjugates in immunoassays; chain copies: 4; two fused three-way junctions, two BBS and two S1 aptamers.
Data set [4] has as its target T3, B52 (SR protein), full-length (UniProt P26686 P26686:2-350). In words: Western blot with HRP-streptavidin; 15 mM MgCl2. Particulars: tags: baculovirus expressed; two fused three-way junctions, two BBS and two S1 aptamers. As for the experimental part:
as §1, §2

Data set [5] addresses T4, TBP (TATA-binding protein) (UniProt P13393 P13393:1-240).
T4 sequence: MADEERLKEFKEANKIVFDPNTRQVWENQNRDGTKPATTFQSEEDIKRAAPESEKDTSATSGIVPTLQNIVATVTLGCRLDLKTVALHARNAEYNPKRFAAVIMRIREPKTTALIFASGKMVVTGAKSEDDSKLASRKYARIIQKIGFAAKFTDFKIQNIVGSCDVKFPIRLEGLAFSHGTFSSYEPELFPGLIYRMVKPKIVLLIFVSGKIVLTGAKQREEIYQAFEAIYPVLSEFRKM
In words: filter; AptTBP-101 Kd stated to be similar to that of AptTBP-12 complex; binds DNA-binding surface and competes with TATA-DNA (p252).

Data set [6] deals with T4, TBP (TATA-binding protein). Briefly: filter. Particulars: three-way junction with asymmetric internal loop and apical loop.
Data set [7] concerns the target T4, TBP (TATA-binding protein). Briefly: reduced form fully retained binding; used to mask DNA-binding surface of TBP.
The target of data set [8] is T1, Streptavidin. Briefly: original aptamer used as reference in deletion analysis. Particulars: tags: ImmunoPure streptavidin, Pierce; HRP or Texas Red conjugates in immunoassays; chain copies: 4.
Data set [9] addresses T1, Streptavidin. Briefly: T-S secondary aptabody detected by HRP-streptavidin. Particulars: tags: ImmunoPure streptavidin, Pierce; HRP or Texas Red conjugates in immunoassays; chain copies: 4; two fused three-way junctions, two TAR-Mal and two S1 modules. How it is done:
as §1, §2

The next data set has as its target T5, HSF (heat shock factor) (UniProt P22813 P22813:1-691).
T5 sequence: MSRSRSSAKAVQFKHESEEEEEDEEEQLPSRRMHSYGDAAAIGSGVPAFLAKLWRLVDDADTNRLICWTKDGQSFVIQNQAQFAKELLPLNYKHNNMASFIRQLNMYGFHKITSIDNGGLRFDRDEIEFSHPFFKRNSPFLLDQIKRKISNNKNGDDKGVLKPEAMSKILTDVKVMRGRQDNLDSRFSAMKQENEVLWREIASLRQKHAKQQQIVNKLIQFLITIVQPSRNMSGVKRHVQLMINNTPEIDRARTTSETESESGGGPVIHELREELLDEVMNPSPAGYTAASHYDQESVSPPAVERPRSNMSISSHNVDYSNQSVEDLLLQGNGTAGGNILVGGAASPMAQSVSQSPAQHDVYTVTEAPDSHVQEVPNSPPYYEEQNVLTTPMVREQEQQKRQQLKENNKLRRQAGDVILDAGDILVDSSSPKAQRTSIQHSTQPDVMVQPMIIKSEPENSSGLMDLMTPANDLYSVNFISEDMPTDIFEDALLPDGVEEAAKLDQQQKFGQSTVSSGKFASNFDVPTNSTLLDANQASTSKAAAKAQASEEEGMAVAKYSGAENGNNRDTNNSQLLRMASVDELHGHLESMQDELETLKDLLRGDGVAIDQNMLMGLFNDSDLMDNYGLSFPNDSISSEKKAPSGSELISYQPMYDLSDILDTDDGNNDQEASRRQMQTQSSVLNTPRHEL
In words: EMSA; affinity measured, value only in figure. The following applies: tags: His; three-way junction. A general note: Mobility shift assays separate free from complexed probe on a gel.

In data set [10] the target is T3, B52 (SR protein), full-length. Briefly: Western blot with B-R then T-S then HRP-streptavidin. Particulars: tags: baculovirus expressed; two fused three-way junctions, two BBS and two R-06 modules. How it is done:
as §1, §2

The target in data set [11] is T2, B52 RRMs (two RNA recognition motifs). Described as above. Particulars: tags: His; two fused three-way junctions, two BBS and two R-06 modules. How it is done:
as §1, §2

T1 sequence (P22629 25-183, one chain of several): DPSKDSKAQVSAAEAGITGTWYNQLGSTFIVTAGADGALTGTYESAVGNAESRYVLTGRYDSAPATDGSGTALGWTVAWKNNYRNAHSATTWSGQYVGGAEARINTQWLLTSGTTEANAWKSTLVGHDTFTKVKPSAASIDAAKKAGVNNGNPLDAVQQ
T3 sequence (P26686 other isoform, or with tags, fused parts or gaps): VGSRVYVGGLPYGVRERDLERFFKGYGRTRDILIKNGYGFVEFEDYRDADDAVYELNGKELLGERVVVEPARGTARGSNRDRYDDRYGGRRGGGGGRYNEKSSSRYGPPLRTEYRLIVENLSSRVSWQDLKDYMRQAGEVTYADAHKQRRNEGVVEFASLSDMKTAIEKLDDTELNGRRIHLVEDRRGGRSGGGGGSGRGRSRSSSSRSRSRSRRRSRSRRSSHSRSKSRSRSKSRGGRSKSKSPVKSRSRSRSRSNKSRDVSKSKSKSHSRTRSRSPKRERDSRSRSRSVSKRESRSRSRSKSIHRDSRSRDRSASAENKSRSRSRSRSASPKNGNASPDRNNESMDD
T2 sequence (P26686 other isoform, or with tags, fused parts or gaps): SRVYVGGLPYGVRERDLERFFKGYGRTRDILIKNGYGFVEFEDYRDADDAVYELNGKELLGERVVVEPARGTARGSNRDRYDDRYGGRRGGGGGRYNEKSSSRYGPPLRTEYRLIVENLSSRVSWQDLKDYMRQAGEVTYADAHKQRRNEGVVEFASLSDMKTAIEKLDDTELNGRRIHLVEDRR

With GGGACCGACCAGAAUCAUGCAAGUGCGUAAGAUAGUCGCGGGCCGGG (ssRNA) [S1 con], the binding result with Streptavidin [1] was “binds”.

B1: aptabody B-S (ssRNA)
RNA: GGGAUCGCCGCGGCUGGUCAACCAGGCGACCGCCGCGGCCACAGCGGUGGGCUGGUCAACCAGGCGACCGCCCACCAGCGUUCCCGGAUCCGUGACCGACCAGAAUCAUGCAAGUGCGUAAGAUAGUCGCGGGUCGGGUCAUACUCCCGGCCAGAAUCAUGCAAGUGCGUAAGAUAGUCGCGGGCCGGGAGGCGGAUUC
Turning to B1, the binding result (in data set [2]; with Streptavidin [3]; in [4]) was “binds” each time.

B2: AptTBP-12 (ssRNA)
RNA: GGGAGAAUUCAACUGCCAUCUAGGCGCCGUGCCCGGUUUGGAUAGGCACAUAAGACGCCGACAAAGAAACCAACCAGUACUACAAGCUUCUGGACUCGGU
A word on the Kd: it is the concentration at which binding is half-saturated. A higher Kd goes with a looser complex. As to B2, the Kd in [5] was ~2 nM.

B3: AptTBP-101 (ssRNA)
RNA: GGGAGAAUUCAACUGCCAUCUAGGCAGCCAAGGUAAACAAUUCAGUUAGUGGAAUGAAACUGCCCAACACCAGAAGUACUACAAGCUUCUGGACUCGGU
Molecule B3 came in with a Kd in [6] of 2 nM.

With GGCGCCGUGCCCGGUUUGGAUAGGCACAUAAGACGCC (ssRNA) [m12 (mini AptTBP-12)], the binding result in [7] is listed as “binds”.

B4: S1 (ssRNA)
RNA: GGGAGUCGACCGACCAGAAUCAUGCAAGUGCGUAAGAUAGUCGCGGGCCGGGGGCGUAUUAUGUGCGUCUACAUCUAGACUCAU
For the molecule B4, the binding result with Streptavidin [8] is “binds”.

B5: aptabody T-S (ssRNA)
RNA: GGGAUCGCCGCCGAGCCCGGGAGCUCGGCGGCCACAGCGGUGGGAGCCCGGGAGCUCCCACCAGCGUUCCCGGAUCCGUGACCGACCAGAAUCAUGCAAGUGCGUAAGAUAGUCGCGGGUCGGGUCAUACUCCCGGCCAGAAUCAUGCAAGUGCGUAAGAUAGUCGCGGGCCGGGAGGCGGAUUC
Regarding B5, the binding result in the data set with Streptavidin [9] is listed as “binds”.

B6: RA1-HSF (ssRNA)
RNA: GGGAGAAUUCAACUGCCAUCUAGGCAUCGCGAUACAAAAUUAAGUUGAACGCGAGUUCUCCAUCUAGUACUACAAGCUUCUGGACUCGGU
Consider B6, for which the binding result with HSF (heat shock factor) was “binds”.

B7: aptabody B-R (ssRNA)
RNA: GGGAUCGCCGCGGCUGGUCAACCAGGCGACCGCCGCGGCCACAGCGGUGGGCUGGUCAACCAGGCGACCGCCCACCAGCGUUCCCGGAUCCGUGACGUCAACACGGUCCCGGACGUGUUGACGUCCAUACUCCUCAACACGGUCCCGGACGUGUUGAGGAGGCGGAUUC
In the case of B7, the binding result in data set [10] and in [11] was “binds” in each case.

These data come from US20050282190, “Modular design and construction of nucleic acid molecules, aptamer-derived nucleic acid constructs, RNA scaffolds, their expression, and methods of use” (published 2005).
